Reference: the Human Domainome abundance scans (Beltran et al. 2025)
± gives the uncertainty stated by the source.

B1: Bromodomain adjacent to zinc finger domain protein 2B, residues 1927 to 1982; numbered along this chain, Q9UIF8 (parent)
chain: KSIMKVYCQICRKGDNEELLLLCDGCDKGCHTYCHRPKITTIPDGDWFCPACIAKA

Variants of: B1
Assay: abundance fitness (aPCA) (normalised: wild type 0, dead -1); higher = more abundant; growth selection in yeast, the domain comes from the species named
Settings: Homo sapiens

Abundance fitness of substitutions, site by site:
Q9: S 0.07 ± 0.072; T -0.063 ± 0.092; V -0.149 ± 0.074; W -0.203 ± 0.085; Y 0.029 ± 0.12
I10: C 0.089 ± 0.13; E 0.095 ± 0.087; F -0.181 ± 0.18; G -0.148 ± 0.069; H 0.079 ± 0.18; K -0.131 ± 0.13; L 0.004 ± 0.08; M -0.047 ± 0.1; N 0.266 ± 0.17; P -0.479 ± 0.11; Q -0.009 ± 0.11; S -0.055 ± 0.078; T -0.01 ± 0.13; V -0.051 ± 0.079; W -0.03 ± 0.099; Y -0.135 ± 0.2
C11: A -1.03 ± 0.088; D -1.05 ± 0.15; E -0.808 ± 0.12; F -0.961 ± 0.17; G -1.1 ± 0.081; H -0.85 ± 0.28; I -0.912 ± 0.15; K -0.887 ± 0.21; L -1.01 ± 0.1; M -1.08 ± 0.17; N -1.04 ± 0.2; P -0.767 ± 0.11; Q -1.19 ± 0.18; R -0.933 ± 0.081; S -0.997 ± 0.097; T -1.14 ± 0.17; V -1.16 ± 0.099; W -1.21 ± 0.14
R12: A 0.008 ± 0.073; C -0.163 ± 0.12; D -0.021 ± 0.1; E 0.008 ± 0.097; F -0.23 ± 0.16; G -0.055 ± 0.063; H -0.187 ± 0.14; I 0.001 ± 0.15; K 0.043 ± 0.13; M -0.05 ± 0.11; P -0.89 ± 0.17; Q -0.041 ± 0.14; S 0.042 ± 0.09; T -0.028 ± 0.1; V -0.079 ± 0.065; W -0.256 ± 0.11; Y -0.183 ± 0.15
K13: A -0.032 ± 0.074; D -0.047 ± 0.12; E -0.045 ± 0.12; F -0.24 ± 0.16; G -0.047 ± 0.078; H -0.076 ± 0.12; I -0.136 ± 0.2; M -0.002 ± 0.13; N -0.102 ± 0.13; P -0.512 ± 0.1; Q -0.111 ± 0.099; R -0.177 ± 0.069; S -0.11 ± 0.089; T -0.164 ± 0.092; V -0.138 ± 0.081; W -0.25 ± 0.091; Y -0.271 ± 0.14
G14: A 0.011 ± 0.082; C -0.171 ± 0.13; D -0.056 ± 0.15; E -0.07 ± 0.11; F -0.127 ± 0.19; H -0.054 ± 0.18; I -0.23 ± 0.31; K -0.063 ± 0.14; L -0.056 ± 0.075; M 0.002 ± 0.15; P -0.026 ± 0.11; Q -0.003 ± 0.13; R 0.018 ± 0.068; S 0.032 ± 0.092; T 0.046 ± 0.12; V 0.035 ± 0.08; Y 0.079 ± 0.18
D15: A -0.234 ± 0.089; C -0.122 ± 0.12; E 0.113 ± 0.11; F -0.118 ± 0.36; G -0.099 ± 0.068; H -0.429 ± 0.2; I -0.221 ± 0.19; K -0.038 ± 0.16; L -0.362 ± 0.12; M -0.406 ± 0.21; N -0.008 ± 0.17; P -0.293 ± 0.12; Q -0.238 ± 0.16; R -0.263 ± 0.069; T -0.22 ± 0.14; V -0.06 ± 0.094; W -0.279 ± 0.12; Y -0.452 ± 0.17
N16: A -0.125 ± 0.096; C -0.081 ± 0.1; D 0.046 ± 0.21; E 0.018 ± 0.14; F -0.329 ± 0.15; G -0.014 ± 0.082; H 0 ± 0.14; I -0.098 ± 0.13; L -0.116 ± 0.084; M -0.165 ± 0.16; Q 0.01 ± 0.16; S -0.008 ± 0.085; T -0.017 ± 0.1; V -0.181 ± 0.11; W -0.183 ± 0.11; Y -0.032 ± 0.15
E17: C 0.005 ± 0.14; D -0.038 ± 0.2; F -0.363 ± 0.35; G 0.022 ± 0.076; H -0.34 ± 0.24; I -0.127 ± 0.24; K 0.172 ± 0.18; L -0.008 ± 0.098; M -0.052 ± 0.14; N -0.139 ± 0.21; P 0.085 ± 0.2; Q 0.103 ± 0.16; R 0.072 ± 0.078; S -0.015 ± 0.12; T -0.069 ± 0.19; W -0.092 ± 0.093; Y -0.409 ± 0.26
E18: A -0.011 ± 0.096; C -0.235 ± 0.13; F -0.124 ± 0.12; G -0.046 ± 0.092; H 0.042 ± 0.16; I -0.376 ± 0.18; K 0.051 ± 0.16; M -0.039 ± 0.13; P -0.183 ± 0.12; Q -0.067 ± 0.1; R -0.055 ± 0.074; S 0.01 ± 0.1; T -0.011 ± 0.1; V -0.205 ± 0.086; W -0.266 ± 0.12; Y -0.188 ± 0.18
L19: C -0.071 ± 0.17; D -0.138 ± 0.13; E -0.012 ± 0.093; F -0.294 ± 0.17; G -0.064 ± 0.08; I -0.125 ± 0.18; K -0.016 ± 0.13; M 0.061 ± 0.13; N 0.027 ± 0.14; P -0.08 ± 0.13
